Test [1] deals with T1, recombinant human full-length TDP-43 (TAR DNA-binding protein 43), soluble (human, UniProt Q13148 1-414).
T1 construct: Used on Luminex beads, coated on ELISA plates, and immobilized or injected in SPR; also called FL TDP-43; TDP-43 protein
Description: Luminex, FL TDP-43 on beads. As to the method: Mice were euthanized and fusion with myeloma cells was performed using splenocytes from four individual mice. Screening for antibodies from the successfully fused hybridoma cell lines were performed as follows. Diluted (1:32) cell culture supernatants were analyzed using Luminex bead-based multiplex assay (Luminex, The Netherlands). Luminex beads were conjugated to FL TDP-43 and with capturing IgGs with anti-mouse IgG-Fc antibodies specific for the IgG1, IgG2a, IgG2b, IgG2c, and IgG3 subclasses (Jackson Immunoresearch, USA). Binding to beads conjugated to FL TDP-43 identified 386 hits derived from mice immunized with the FL TDP-43 liposomal vaccine.
Luminex assays with serial dilution of antibodies were performed as described before to determine half maximal effective concentration (EC50) of binding of antibodies to FL TDP-43. In summary, all tested antibodies bind to full length TDP-43 with high affinity.

Test [2] deals with T2, recombinant human aggregated full-length TDP-43 (human, UniProt Q13148 1-414).
T2 construct: also called aggregated TDP-43; aggregated FL TDP-43
T2 sequence (Q13148 whole entry): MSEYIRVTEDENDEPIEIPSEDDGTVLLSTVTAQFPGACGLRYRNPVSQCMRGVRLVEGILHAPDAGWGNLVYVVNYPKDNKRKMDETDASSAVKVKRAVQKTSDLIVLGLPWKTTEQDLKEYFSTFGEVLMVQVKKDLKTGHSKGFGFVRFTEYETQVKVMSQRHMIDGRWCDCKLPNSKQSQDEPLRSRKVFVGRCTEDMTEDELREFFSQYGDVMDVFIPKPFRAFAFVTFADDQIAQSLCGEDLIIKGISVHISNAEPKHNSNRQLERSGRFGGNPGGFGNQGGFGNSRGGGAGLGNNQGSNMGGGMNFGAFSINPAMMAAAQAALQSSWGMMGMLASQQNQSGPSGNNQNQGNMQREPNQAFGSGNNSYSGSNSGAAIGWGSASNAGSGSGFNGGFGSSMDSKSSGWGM
The test can be described thus: SPR, immobilized aggregated TDP-43. On the procedure:
(§1) Binding avidity to soluble or aggregated FL TDP-43 was evaluated by determing the dissociation constants (KD) using surface plasmon resonance (SPR; Biacore T200, GE Healthcare Life Sciences). Recombinant human soluble or aggregated FL TDP-43 were immobilized on a CM5 Series S sensor chip (GE Healthcare Life Sciences) by amine coupling. Soluble TDP-43 was immobilized at a concentration of 5 µg/ml in 10 mM sodium acetate (pH 4.5) with a flow rate of 5 µl/min for 420 seconds resulting in an immobilization level of 150 RU. Aggregated TDP-43 was immobilized at a concentration of 50 µg/ml in 10 mM sodium acetate (pH 4.5) with a flow rate of 5 µl/min for 840 seconds resulting in an immobilization level of 110 RU. Biotinylated TP-73 peptide (aa 181-190 of SEQ ID NO:1) was immobilized on a Series S Sensor Chip SA (GE Healthcare Life Sciences) at a concentration of 5 µg/ml in PBS-P⁺ with a flow rate of 5 µl/min for 30 seconds resulting in an immobilization level of 400 RU. […] The antibodies were injected at a flow rate of 50 µl/min for 90 seconds contact time and 700 seconds dissociation phase followed by three regenerations with 10 mM glycine-HCl pH 1.7. For the optimized SPR protocol the antibodies were diluted 3-fold starting from 300 nM and dilute down to 1.2 nM and injected for 300 seconds at 30 µl/min followed by 600 seconds dissociation. The surface was regenerated by one injection with 10 mM glycine-HCl pH 1.7. Results obtained from binding kinetics were double-referenced using a blank flow cell and a buffer cycle and were evaluated with a global 1:1 fitting model with RI. Avidities for 11 antibodies and two Fab fragments are depicted in Table 8. […] In addition, some antibodies show preferential binding to aggregated TDP-43 as compared with soluble TDP-43.
(In general: Surface plasmon resonance follows binding to a sensor surface in real time, without labels.)

In test [3] the target is T1, recombinant human full-length TDP-43 …. Description: SPR, immobilized soluble TDP-43. On the procedure:
as §1

Test [4] has the same target. Description: indirect ELISA, coated FL TDP-43. As to the method: Antibody binding to human FL TDP-43 was determined using an indirect ELISA. ELISA plate coating with 1 µg/ml human FL TDP-43 was performed overnight in carbonate buffer at 4° C. Plates were washed with 0.05% Tween-20/PBS and then blocked with 1% bovine serum albumin (BSA) in 0.05% Tween-20/PBS for 1 hour at 37° C. Antibodies purified from hybridoma supernatants were then added in a 3-fold serial dilution starting at 1 µg/ml, and incubated for 2 hours at 37° C. after which the plates were washed. An AP-conjugated anti-mouse IgG secondary antibody (Jackson Immunoresearch Laboratories, United Kingdom) was added at 1/1000 dilution in 0.05% Tween-20/PBS for 1 hour at 37° C. After the final wash, plates were incubated with pNPP (Sigma-Aldrich, Switzerland) phosphatase substrate solution, and read at 405 nm using an ELISA plate reader (Tecan, Switzerland).
(In general: ELISA stands for enzyme-linked immunosorbent assay.)

Test [5] has the same target. Description: SPR, mAb captured, FL TDP-43 injected; mean. As to the method:
Binding affinity to soluble FL TDP-43 was evaluated by determing the dissociation constants (KD) using surface plasmon resonance (SPR; Biacore T200, GE Healthcare Life Sciences). Goat-anti mouse capture antibody was immobilized on a CM5 Series S sensor chip (GE Healthcare Life Sciences) by amine coupling. Antibodies were captured at a concentration of 2-5 µg/ml in PBS-P⁺ (GE Healthcare Life Sciences) with a flow rate of 10 µl/min for 120 seconds resulting in a capture level of 350-1000 RU. […] Dissociation was recorded for 1 h followed by one regeneration with 10 mM glycine-HCl pH 1.7. Results obtained from binding kinetics were double-referenced using a blank flow cell and a buffer cycle and were evaluated with a global 1:1 fitting model with RI.

The target is the same in test [6]. Description: SPR optimized protocol, immobilized soluble TDP-43.
Test [7] deals with T2, recombinant human aggregated …. Description: SPR optimized protocol, immobilized aggregated TDP-43.
The target in test [8] is T1, recombinant human full-length TDP-43 …. The test can be described thus: SPR, immobilized soluble TDP-43; Fab fragment, not whole antibody; soluble TDP-43 on the chip.

For orientation: EC50 means the concentration that produces a half-maximal response. For orientation: Kd means a measure of binding affinity in units of concentration. Broadly, the koff is the first-order rate constant of dissociation. As usually defined, the kon is the second-order rate constant of association.

T1 sequence (Q13148 whole entry): as above

B1: ACI-7071-712A6-Ab1 (antibody, mouse IgG2c, V domains shown)
VH: QVQLQQSGAELVKPGTSVKLSCKASAYTFTEYTIHWIKQKSGQGLEWIGWFHPENDNIKYNENFKDKATLTADRSSSTVYMELSRLTSEDSAVYFCAGTSGYGDYWGQGTTLTVSS
VL: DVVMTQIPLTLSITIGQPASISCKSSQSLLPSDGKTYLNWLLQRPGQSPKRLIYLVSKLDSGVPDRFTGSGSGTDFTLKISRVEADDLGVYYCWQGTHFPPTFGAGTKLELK
notes: Mouse IgG2c; also called 712A6B10
For the molecule B1, the EC50 in test [1] stood at 0.18 nM; in test [4] it was 0.102 µg/mL. In addition, the Kd in test [2] was determined as 0.68 nM; in test [3], 406 nM. Also, the koff in test [2] is 2.36e-05 s⁻¹; in test [3] it was 0.000545 s⁻¹. Besides, the kon was 34800 M⁻¹ s⁻¹ in test [2] and 1340 M⁻¹ s⁻¹ in test [3].

B2: ACI-7071-809F12-Ab1 (antibody, mouse IgG2b, V domains shown)
VH: QVQLKESGPGLVAPSQSLSITCTVSGFSLNRNGVQWVRQPPGKGLEWLGVIWPGGSTNCNSALMSRLSISKDNSKSQVFLKMNSLHTDDTGIYYCARVGGNYVWDYNNYAWGQGTLVTVSA
VL: DVLMTQTPLSLPVSLGDQASISCRSSQNIVHSIGNTYLEWYLQKPGQSPKLLIYKVSNRFSGVPDRFSGSGSGTDFTLKISRVEAEDLGVYYCFQGSHVPYTFGGGTKLEIR
notes: Mouse IgG2b, kappa, from hybridoma; also called 809F12D8
On to B2, for which the values for the dissociation constant (Kd) in test [5], in test [2] and in test [3] were 0.423 nM, 0.81 nM and 1.68 nM, respectively. The dissociation rate constant (koff) in test [5] amounted to 1.36e-05 s⁻¹; in test [2], 7.63e-05 s⁻¹; in test [3], 0.000167 s⁻¹. Moreover, the figures for the kon in test [5], in test [2] and in test [3] were 32000 M⁻¹ s⁻¹, 94700 M⁻¹ s⁻¹ and 99400 M⁻¹ s⁻¹, respectively. In addition, the values for the EC50 in test [1] and in test [4] were under 0.01 nM and 0.014 µg/mL, respectively.

B3: ACI-7069-641H1-Ab2 (antibody, mouse IgG2b, V domains shown)
VH: QVQLKESGPGLVAPSQSLSITCTVSGFSLTNYGVHWVRQPPGKGLEWLGLMWAGGSTNYNSALMSRLSISKDNSKSQVFLKMNSLQTDDTAMYYCVIYRTGFAYWGQGTLVTVSA
VL: DVLMTQTPLSLPVSLGDQASISCRSSQSIVHTIGNTYLEWYLQKPGQSPKLLIYKVSNRFSGVPDRFSGSGSGTDFTLKISRVEAEDLGVYYCFQGSHVPFTFGSGTKLEIK
notes: Mouse IgG2b, kappa, from hybridoma; also called 641H1E7
Take B3: the concentration giving a half-maximal response (EC50) in test [1] is under 0.01 nM. Besides, in test [2], the Kd turned out to be 1.6 nM, the koff is 0.000193 s⁻¹ and the on-rate (kon) came to 121000 M⁻¹ s⁻¹. Moreover, in test [3], the Kd was 6.76 nM, the off-rate (koff) amounted to 0.000841 s⁻¹ and the kon came to 125000 M⁻¹ s⁻¹. For the same molecule, in test [4], the concentration for a half-maximal effect (EC50) came out at 0.016 µg/mL.

B4: ACI-7069-646B7-Ab1 (antibody, mouse IgG2b, V domains shown)
VH: QVQLKESGPGLVAPSQSLSITCTVSGFSLTNFGVHWVRQPPGKGLEWLGIMWAGGSTNYNSALMSRLSISKDNSKSQVFLKMNSLQTDDTAMYYCVIYKTGFAYWGQGTLVTVSA
VL: DVLMTQTPLSLPVSLGDQASISCRSSQSIVHAIGNTYLEWYLQKPGQSPKLLIYKVSNRFSGVPDRFSGSGSGTDFTLKISRVEAEDLGVYYCFQGSHVPFTFGSGTKLEIK
notes: Mouse IgG2b, kappa, from hybridoma; also called 646B7F7
For the molecule B4, the figures for the 50% effective concentration (EC50) in test [1] and in test [4] were under 0.01 nM and 0.011 µg/mL, respectively. The dissociation constant Kd in test [2] was determined as 1.28 nM; in test [3] it was 3.66 nM. Moreover, the koff in test [2] was determined as 0.000184 s⁻¹; in test [3] it was 0.00065 s⁻¹. Also, the on-rate (kon) in test [2] is 144000 M⁻¹ s⁻¹; in test [3] it was 178000 M⁻¹ s⁻¹.

B5: ACI-7069-642D12-Ab1 (IgG2a variant) (antibody, V domains shown)
VH: EVQLQQSGAELVKPGASVRLSCTASGFNIKDPYMHWVRQRPKQGLEWIGRIDPADGNTKYDPKFQGKATLTADTSSNVAYLHLSSLTSEDTAVYYCARFYGSSHWYFDVWGAGTTVTVSS
VL: DIKMTQSPSSMYASLGERVTITCKASQDIKRYLSWYQQKPWKSPKILIYYATSLADGVPSRFSGTGSGQDYSLTISSLESDDVATYYCLQQGESPYTFGGGTKLEIK
notes: Recombinantly produced mouse IgG2a isotype; also called 642D12B4 *; ACI-7069-642D12-Ab1 (IgG2a isotype)
In the case of B5, in test [6], the equilibrium dissociation constant (Kd) is 3.9 nM, the koff was 0.00045 s⁻¹ and the kon is 115000 M⁻¹ s⁻¹. For the same molecule, in test [7], the dissociation constant (Kd) was found to be 0.69 nM, the koff was found to be 9.87e-05 s⁻¹ and the association rate constant (kon) turned out to be 149000 M⁻¹ s⁻¹.

B6: ACI-7069-636E5-Ab1 (antibody, mouse IgG2b, V domains shown)
VH: EVHLVESGGDLVMPGGSLKLSCAASGFTFSNYGMSWVRQTPDKRLEWVATISSGGKYINYLDSLKGRFTISRDNAKNTLYLQMSSLKSEDTAMYYCAKDYGSGWAWFAYWGQGTLVTVSA
VL: QLVLTQSSSASFSLGASAKLTCTLSSQHSTYTIEWYQQQPLKPPKYVMELKKDGSHSTGDGIPDRFSGSSSGADRYLSISNIQPEDEAIYICGVGDTIKEQFVYVFGGGTKVTVL
notes: Mouse IgG2b, lambda, from hybridoma; also called 636E5B8
On to B6, for which the EC50 in test [1] was under 0.01 nM. Also, in test [2], the Kd was found to be 2.43 nM, the koff came to 0.000274 s⁻¹ and the kon stood at 113000 M⁻¹ s⁻¹. Also, in test [3], the Kd came out at 43.8 nM, the off-rate constant (koff) came to 0.000682 s⁻¹ and the kon worked out at 15600 M⁻¹ s⁻¹. For the same molecule, in test [4], the half-maximal effective concentration (EC50) stood at 0.015 µg/mL.

B7: 633B12C8 Fab (Fab, V domains shown)
VH: EVQLQQSGPELVKPGASVKISCKTSGFTFTEYSMHWVKQSHGKSLEWIGGINPNNGGTSYNQKFKGKATLTVDKSSSTAYMELRSLTSEDSAVYYCARESWGQGTTLTVSS
VL: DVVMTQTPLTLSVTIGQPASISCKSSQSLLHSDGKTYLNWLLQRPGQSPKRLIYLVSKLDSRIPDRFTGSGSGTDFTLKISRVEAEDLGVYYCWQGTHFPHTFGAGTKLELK
notes: Fab fragment; also called Fab fragment of ACI-7069-633B12-Ab1
For B7, the Kd in test [8] was found to be 2.8 nM. Besides, in test [2], the Kd was found to be 6.9 nM, the koff stood at 0.000215 s⁻¹ and the on-rate constant (kon) amounted to 32200 M⁻¹ s⁻¹. In test [3], the koff was found to be 0.000146 s⁻¹ and the kon is 55100 M⁻¹ s⁻¹.

B8: ACI-7069-633B12-Ab1 (IgG2a variant) (antibody, V domains shown)
VH: EVQLQQSGPELVKPGASVKISCKTSGFTFTEYSMHWVKQSHGKSLEWIGGINPNNGGTSYNQKFKGKATLTVDKSSSTAYMELRSLTSEDSAVYYCARESWGQGTTLTVSS
VL: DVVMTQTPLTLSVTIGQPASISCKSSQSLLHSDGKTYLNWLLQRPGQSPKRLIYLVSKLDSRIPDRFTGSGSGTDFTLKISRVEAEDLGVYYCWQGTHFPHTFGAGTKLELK
notes: Recombinantly produced mouse IgG2a isotype; also called 633B12C8*; ACI-7069-633B12-Ab1 (IgG2a isotype)
On to B8, for which, in test [6], the dissociation constant Kd amounted to 0.22 nM, the dissociation rate constant (koff) came out at 1.08e-05 s⁻¹ and the kon was found to be 61800 M⁻¹ s⁻¹. Moreover, in test [7], the Kd was found to be 0.18 nM, the koff is 1.32e-05 s⁻¹ and the kon turned out to be 84000 M⁻¹ s⁻¹.

The record behind these values is patent publication US20230322908A1 (AC IMMUNE, published 2023).
